Assay [1] addresses T1, monomeric murine LTBR ECD (S28-L223) Fc fusion avi biotinylated (P1AE4410) (mouse, UniProt P0DOX5 223-449 = IgG part, biotinylated avi tag).
T1 construct: also called mu LTBR
Put plainly: SPR affinity set-up, antibody captured.

Assay [2] has as its target murine FAP-Avi-His biotinylated (P1AD9907) (mouse, UniProt P97321 27-761, biotinylated avi tag). Put plainly: SPR affinity set-up, antibody captured.
Assay [3] has as its target T1, monomeric murine LTBR ECD (S28-L223) Fc …. Put plainly: SPR avidity set-up, LTBR on SA chip.
For assay [4] the target is unchanged. Kind of assay: SPR. In general terms: In SPR one partner is held on a chip, and binding of the other changes the refractive index at the surface.
The target in assay [5] is T2, monomeric cynomolgus LTBR ECD (S28-M227) Fc fusion avi biotinylated (P1AE4411) (cynomolgus, UniProt P0DOX5 223-449 = IgG part, biotinylated avi tag).
T2 construct: also called cyno LTBR
Kind of assay: SPR, IgG captured.

Assay [6] concerns the target T3, human LTBR ECD (S28-M227) N- and C-terminally extended-Fc-fusion wt kih HRYF-Avi-His biotinylated (P1AE7979) (human, UniProt P0DOX5 223-449 = IgG part, biotinylated avi tag).
T3 construct: also called hu LTBR
Kind of assay: SPR, IgG captured.

What is called Kd is the free concentration of one partner at which half of the binding sites on the other are occupied at equilibrium, for simple one-to-one binding. Read a high Kd as weaker binding. The term koff denotes the rate constant with which the complex falls apart. A low value points to slow dissociation. As a reminder, the kon is the second-order rate constant of association. Read a low kon as slower complex formation.

Some results are limits rather than exact numbers.

B1: P1AF4664 (bispecific antibody, mouse IgG1, kappa)
heavy 1: EVQLLESGGGLVQPGGSLRLSCAASGFTFSYYAMTWVRQAPGKGLEWIGVINSGGGTYYTDSVKGRFTMSRDNSKNTLYLQVNSLRAEDTAVYYCAKASTADVWGQGTTVTVSSAKTTPPSVYPLAPGSAAQTNSMVTLGCLVEGYFPEPVTVTWNSGSLSSGVHTFPAVLQSDLYTLSSSVTVPSSTWPSQTVTCNVAHPASSTKVDEKIVPRDCGCKPCICTVPEVSSVFIFPPKPKDVLTITLTPKVTCVVVAISKDDPEVQFSWFVDDVEVHTAQTKPREEQINSTFRSVSELPIMHQDWLNGKEFKCRVNSAAFGAPIEKTISKTKGRPKAPQVYTIPPPKKQMAKDKVSLTCMITNFFPEDITVEWQWNGQPAENYKNTQPIMKTDGSYFVYSKLNVQKSNWEAGNTFTCSVLHEGLHNHHTEKSLSHSPG
light 1: DIQMTQSPSSLSASVGDRVTITCQASQGISNYLSWYQQKPGKAPKRLIFAASSLESGVPSRFSGSGSGTDFTLTISSLQPEDFATYYCQQYNSYSLTFGGGTKLEIKRADAAPTVSIFPPSSRKLTSGGASVVCFLNNFYPKDINVKWKIDGSERQNGVLNSWTDQDSKDSTYSMSSTLTLTKDEYERHNSYTCEATHKTSTSPIVKSFNRNEC
heavy 2: EIVLTQSPGTLSLSPGERATLSCRASQSVSRSYLAWYQQKPGQAPRLLIIGASTRATGIPDRFSGSGSGTDFTLTISRLEPEDFAVYYCQQGQVIPPTFGQGTKVEIKSSAKTTPPSVYPLAPGSAAQTNSMVTLGCLVKGYFPEPVTVTWNSGSLSSGVHTFPAVLQSDLYTLSSSVTVPSSTWPSQTVTCNVAHPASSTKVDKKIVPRDCGCKPCICTVPEVSSVFIFPPKPKDVLTITLTPKVTCVVVAISKDDPEVQFSWFVDDVEVHTAQTKPREEQINSTFRSVSELPIMHQDWLNGKEFKCRVNSAAFGAPIEKTISKTKGRPKAPQVYTIPPPKEQMAKDKVSLTCMITNFFPEDITVEWQWNGQPAENYDNTQPIMDTDGSYFVYSDLNVQKSNWEAGNTFTCSVLHEGLHNHHTEKSLSHSPG
light 2: EVQLLESGGGLVQPGGSLRLSCAASGFTFSSHAMSWVRQAPGKGLEWVSAIWASGEQYYADSVKGRFTISRDNSKNTLYLQMNSLRAEDTAVYYCAKGWLGNFDYWGQGTLVTVSSRADAAPTVSIFPPSSEQLTSGGASVVCFLNNFYPKDINVKWKIDGSERQNGVLNSWTDQDSKDSTYSMSSTLTLTKDEYERHNSYTCEATHKTSTSPIVKSFNRNEC
notes: 1+1 anti-LTBR (0080)/anti-FAP (28H1) murine IgG1 DA PG crossMab; also called murine 1+1 surrogate
Turning to B1, the figures for the Kd in assay [1] and in assay [2] were 13 nM and under 0.1 nM, respectively. Further, the t1/2 in assay [1] was 1.25 min; in assay [3] it was 0.75 min.

B2: P1AF4674 (bispecific antibody, mouse IgG1, kappa)
heavy 1: EVQLLESGGGLVQPGGSLRLSCAASGFTFSYYAMTWVRQAPGKGLEWIGVINSGGGTYYTDSVKGRFTMSRDNSKNTLYLQVNSLRAEDTAVYYCAKASTADVWGQGTTVTVSSAKTTPPSVYPLAPGSAAQTNSMVTLGCLVEGYFPEPVTVTWNSGSLSSGVHTFPAVLQSDLYTLSSSVTVPSSTWPSQTVTCNVAHPASSTKVDEKIVPRDCGCKPCICTVPEVSSVFIFPPKPKDVLTITLTPKVTCVVVAISKDDPEVQFSWFVDDVEVHTAQTKPREEQINSTFRSVSELPIMHQDWLNGKEFKCRVNSAAFGAPIEKTISKTKGRPKAPQVYTIPPPKKQMAKDKVSLTCMITNFFPEDITVEWQWNGQPAENYKNTQPIMKTDGSYFVYSKLNVQKSNWEAGNTFTCSVLHEGLHNHHTEKSLSHSPGGGGGSGGGGSGGGGSGGGGSEVQLLESGGGLVQPGGSLRLSCAASGFTFSSHAMSWVRQAPGKGLEWVSAIWASGEQYYADSVKGRFTISRDNSKNTLYLQMNSLRAEDTAVYYCAKGWLGNFDYWGQGTLVTVSSRADAAPTVSIFPPSSEQLTSGGASVVCFLNNFYPKDINVKWKIDGSERQNGVLNSWTDQDSKDSTYSMSSTLTLTKDEYERHNSYTCEATHKTSTSPIVKSFNRNEC
light 1: DIQMTQSPSSLSASVGDRVTITCQASQGISNYLSWYQQKPGKAPKRLIFAASSLESGVPSRFSGSGSGTDFTLTISSLQPEDFATYYCQQYNSYSLTFGGGTKLEIKRADAAPTVSIFPPSSRKLTSGGASVVCFLNNFYPKDINVKWKIDGSERQNGVLNSWTDQDSKDSTYSMSSTLTLTKDEYERHNSYTCEATHKTSTSPIVKSFNRNEC
heavy 2: EVQLLESGGGLVQPGGSLRLSCAASGFTFSYYAMTWVRQAPGKGLEWIGVINSGGGTYYTDSVKGRFTMSRDNSKNTLYLQVNSLRAEDTAVYYCAKASTADVWGQGTTVTVSSAKTTPPSVYPLAPGSAAQTNSMVTLGCLVEGYFPEPVTVTWNSGSLSSGVHTFPAVLQSDLYTLSSSVTVPSSTWPSQTVTCNVAHPASSTKVDEKIVPRDCGCKPCICTVPEVSSVFIFPPKPKDVLTITLTPKVTCVVVAISKDDPEVQFSWFVDDVEVHTAQTKPREEQINSTFRSVSELPIMHQDWLNGKEFKCRVNSAAFGAPIEKTISKTKGRPKAPQVYTIPPPKEQMAKDKVSLTCMITNFFPEDITVEWQWNGQPAENYDNTQPIMDTDGSYFVYSDLNVQKSNWEAGNTFTCSVLHEGLHNHHTEKSLSHSPG
light 2: EIVLTQSPGTLSLSPGERATLSCRASQSVSRSYLAWYQQKPGQAPRLLIIGASTRATGIPDRFSGSGSGTDFTLTISRLEPEDFAVYYCQQGQVIPPTFGQGTKVEIKSSAKTTPPSVYPLAPGSAAQTNSMVTLGCLVKGYFPEPVTVTWNSGSLSSGVHTFPAVLQSDLYTLSSSVTVPSSTWPSQTVTCNVAHPASSTKVDKKIVPRDC
notes: 2+1 anti-LTBR (0080)/anti-FAP (28H1) murine IgG1 DA PG crossMab; also called murine 2+1 surrogate
For the molecule B2, the Kd in assay [1] is 13 nM; in assay [2] it was under 0.1 nM. Moreover, the t1/2 was 1.18 min in assay [1] and 6.88 min in assay [3].

B3: P1AH0119 (BHA10) (antibody, human IgG1, kappa, L234A L235A, V domains shown)
VH: QVQLVQSGAEVKKPGSSVKVSCKASGYTFTTYYLHWVRQAPGQGLEWMGWIYPGNVHAQYNEKFKGRVTITADKSTSTAYMELSSLRSEDTAVYYCARSWEGFPYWGQGTTVTVSS
VL: DIQMTQSPSSLSASVGDRVTITCKASQNVGINVAWYQQKPGKAPKSLISSASYRYSGVPSRFSGSGSGTDFTLTISSLQPEDFATYFCQQYDTYPFTFGQGTKVEIKR
As to B3, in assay [4], the binding result is recorded as “no binding (tested: 300 nM)”. In assay [5], this molecule registered a Kd of 1.18 nM, a T1/2 of 8 min, a koff of 0.00154 s⁻¹ and a kon of 1.31e+06 M⁻¹ s⁻¹. In assay [6], this molecule came in with a Kd of 0.5 nM, a T1/2 of 14 min, a koff of 0.000853 s⁻¹ and a kon of 1.72e+06 M⁻¹ s⁻¹.

The values are drawn from patent US20250034269A1 (Hoffmann-La Roche, published 2025).
